# Test results published in article doi:10.1101/2020.08.09.242891 (bioRxiv, 2020).
# T1: FLAG-PKD1 (protein kinase D1) (UniProt Q15139 1-912)
# T1 sequence (looked up): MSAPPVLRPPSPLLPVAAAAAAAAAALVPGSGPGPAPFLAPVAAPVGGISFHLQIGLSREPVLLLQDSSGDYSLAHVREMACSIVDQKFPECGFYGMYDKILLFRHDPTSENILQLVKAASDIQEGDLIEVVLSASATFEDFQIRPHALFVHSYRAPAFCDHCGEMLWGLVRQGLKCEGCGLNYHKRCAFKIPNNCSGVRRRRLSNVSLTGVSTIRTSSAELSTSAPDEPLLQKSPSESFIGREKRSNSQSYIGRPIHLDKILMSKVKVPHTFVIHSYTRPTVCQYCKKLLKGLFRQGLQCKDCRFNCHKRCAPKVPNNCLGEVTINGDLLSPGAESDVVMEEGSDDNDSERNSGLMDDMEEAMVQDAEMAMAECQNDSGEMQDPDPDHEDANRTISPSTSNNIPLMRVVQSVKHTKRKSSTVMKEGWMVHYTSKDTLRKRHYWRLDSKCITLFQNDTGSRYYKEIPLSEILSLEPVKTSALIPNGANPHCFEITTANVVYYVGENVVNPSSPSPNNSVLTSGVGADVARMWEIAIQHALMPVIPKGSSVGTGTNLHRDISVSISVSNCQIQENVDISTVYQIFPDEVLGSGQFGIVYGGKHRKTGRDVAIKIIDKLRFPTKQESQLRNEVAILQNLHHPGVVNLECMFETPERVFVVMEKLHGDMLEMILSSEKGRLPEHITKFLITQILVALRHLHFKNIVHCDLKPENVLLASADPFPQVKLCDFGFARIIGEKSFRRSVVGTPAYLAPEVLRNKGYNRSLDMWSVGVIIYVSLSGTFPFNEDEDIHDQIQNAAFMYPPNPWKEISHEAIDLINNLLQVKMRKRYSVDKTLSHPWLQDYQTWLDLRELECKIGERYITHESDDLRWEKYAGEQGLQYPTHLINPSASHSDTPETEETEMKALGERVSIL
# B1: GST-CBX8 (natural protein, UniProt Q9HC52 1-389, looked up)
# chain: MELSAVGERVFAAEALLKRRIRKGRMEYLVKWKGWSQKYSTWEPEENILDARLLAAFEEREREMELYGPKKRGPKPKTFLLKAQAKAKAKTYEFRSDSARGIRIPYPGRSPQDLASTSRAREGLRNMGLSPPASSTSTSSTCRAEAPRDRDRDRDRDRERDRERERERERERERERERERGTSRVDDKPSSPGDSSKKRGPKPRKELPDPSQRPLGEPSAGLGEYLKGRKLDDTPSGAGKFPAGHSVIQLARRQDSDLVQCGVTSPSSAEATGKLAVDTFPARVIKHRAAFLEAKGQGALDPNGTRVRHGSGPPSSGGGLYRDMGAQGGRPSLIARIPVARILGDPEEESWSPSLTNLEKVVVTDVTSNFLTVTIKESNTDQGFFKEKR
# Target: T1, FLAG-PKD1 (protein kinase D1)
# Test: pull-down
binder,measurement,value
B1,binding result,binds
